Values quoted from earlier work, collected in publication PMC3312455.
Several values for one entry are separate records, joined by “and”; a condition that tells them apart may be missing. Equal entries are not always repeated. One block for each substance: values may come before it.

Assays:
Experiment in all cases: SPR
[1] = target: PDGFRα ECD (Homo sapiens) (UniProt P16234)
[2] = target: VEGFR1/Flt ECD (Homo sapiens) (UniProt P17948)
[3] = target: Neuropilin-1 ECD (Homo sapiens) (UniProt O14786)
[4] = target: αvβ3 integrin receptor (Homo sapiens) (UniProt P06756)
agrin = agrin (UniProt O00468)
[5] = target: FGFR2-IIIb ECD (Homo sapiens) (UniProt P21802)
[6] = target: FGFR1-IIIc D2-D3 (Homo sapiens) (UniProt P11362)
[7] = target: FGFR1-IIIc D1-D3 (Homo sapiens) (UniProt P11362)
[8] = target: FGFR1-IIIc ECD (Homo sapiens) (UniProt P11362)
[9] = target: FGFR2-IIIb D2-D3 (Homo sapiens) (UniProt P21802)
[10] = target: FGFR3-IIIc D2-D3 (Homo sapiens) (UniProt P22607)
[11] = target: FGFR3-IIIc D1-D3 (Homo sapiens) (UniProt P22607)
[12] = target: PDGFRβ ECD (Homo sapiens) (UniProt P09619)
c-MET ECD (Homo sapiens) = c-MET ECD (Homo sapiens) (UniProt P08581)

VEGF-A165, sequence (P15692 whole entry): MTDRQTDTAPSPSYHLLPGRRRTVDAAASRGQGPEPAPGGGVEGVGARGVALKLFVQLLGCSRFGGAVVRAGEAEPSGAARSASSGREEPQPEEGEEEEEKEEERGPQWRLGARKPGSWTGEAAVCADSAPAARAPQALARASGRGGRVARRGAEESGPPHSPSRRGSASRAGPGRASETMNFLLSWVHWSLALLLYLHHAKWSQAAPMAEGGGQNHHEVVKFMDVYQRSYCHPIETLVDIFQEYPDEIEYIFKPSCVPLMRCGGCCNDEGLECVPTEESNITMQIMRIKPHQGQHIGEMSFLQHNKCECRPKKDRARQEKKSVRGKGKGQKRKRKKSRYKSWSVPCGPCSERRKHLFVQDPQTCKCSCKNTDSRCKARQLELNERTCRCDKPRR
FGFR2-IIIb ECD (Homo sapiens), sequence (P21802 22-377): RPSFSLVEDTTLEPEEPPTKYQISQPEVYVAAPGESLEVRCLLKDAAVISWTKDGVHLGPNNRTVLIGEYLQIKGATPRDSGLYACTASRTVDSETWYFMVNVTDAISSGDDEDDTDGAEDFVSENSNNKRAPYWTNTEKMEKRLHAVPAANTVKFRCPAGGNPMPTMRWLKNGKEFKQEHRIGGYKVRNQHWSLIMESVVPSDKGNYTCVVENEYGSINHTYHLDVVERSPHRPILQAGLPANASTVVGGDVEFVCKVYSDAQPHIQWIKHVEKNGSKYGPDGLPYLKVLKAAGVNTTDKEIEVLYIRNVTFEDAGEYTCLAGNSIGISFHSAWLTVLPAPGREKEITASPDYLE
FGF1, sequence (P05230 16-155): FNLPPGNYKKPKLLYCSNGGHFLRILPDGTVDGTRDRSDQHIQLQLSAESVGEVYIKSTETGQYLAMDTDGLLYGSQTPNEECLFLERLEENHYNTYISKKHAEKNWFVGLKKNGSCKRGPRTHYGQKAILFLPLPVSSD
FGF2, sequence (P09038 143-288): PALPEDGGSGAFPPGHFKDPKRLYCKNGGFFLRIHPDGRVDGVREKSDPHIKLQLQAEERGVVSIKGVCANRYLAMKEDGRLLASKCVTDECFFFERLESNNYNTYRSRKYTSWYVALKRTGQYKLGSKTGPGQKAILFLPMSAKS
FGF4, sequence (P08620 31-206): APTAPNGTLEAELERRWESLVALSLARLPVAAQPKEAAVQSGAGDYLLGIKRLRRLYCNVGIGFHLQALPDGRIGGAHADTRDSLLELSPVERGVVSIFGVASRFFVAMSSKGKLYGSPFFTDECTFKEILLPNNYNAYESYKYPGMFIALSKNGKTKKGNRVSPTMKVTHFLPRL
PDGFRα ECD (Homo sapiens), sequence (P16234 24-528): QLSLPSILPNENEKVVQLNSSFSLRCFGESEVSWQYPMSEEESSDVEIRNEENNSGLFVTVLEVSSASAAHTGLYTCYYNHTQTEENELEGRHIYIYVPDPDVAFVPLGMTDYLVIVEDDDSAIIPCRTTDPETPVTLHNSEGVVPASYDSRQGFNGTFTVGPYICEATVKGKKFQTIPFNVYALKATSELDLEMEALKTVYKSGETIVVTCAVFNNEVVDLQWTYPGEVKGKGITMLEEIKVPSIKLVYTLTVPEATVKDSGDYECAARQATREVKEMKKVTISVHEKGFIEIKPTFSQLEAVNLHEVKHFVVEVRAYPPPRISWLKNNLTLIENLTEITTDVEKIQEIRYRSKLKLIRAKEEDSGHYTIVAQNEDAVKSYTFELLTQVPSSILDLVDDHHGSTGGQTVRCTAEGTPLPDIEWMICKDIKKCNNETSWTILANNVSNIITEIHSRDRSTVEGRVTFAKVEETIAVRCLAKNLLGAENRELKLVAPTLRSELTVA
FGFR1-IIIc D2-D3 (Homo sapiens), sequence (P11362 142-365): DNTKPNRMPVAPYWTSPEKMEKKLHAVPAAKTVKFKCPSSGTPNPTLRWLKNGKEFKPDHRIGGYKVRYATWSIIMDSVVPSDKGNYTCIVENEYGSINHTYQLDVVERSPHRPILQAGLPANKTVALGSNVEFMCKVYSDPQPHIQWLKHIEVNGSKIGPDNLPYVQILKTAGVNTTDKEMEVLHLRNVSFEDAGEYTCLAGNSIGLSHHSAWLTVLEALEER
αvβ3 integrin receptor (Homo sapiens), sequence (P06756 31-1048, chain 1 of 2): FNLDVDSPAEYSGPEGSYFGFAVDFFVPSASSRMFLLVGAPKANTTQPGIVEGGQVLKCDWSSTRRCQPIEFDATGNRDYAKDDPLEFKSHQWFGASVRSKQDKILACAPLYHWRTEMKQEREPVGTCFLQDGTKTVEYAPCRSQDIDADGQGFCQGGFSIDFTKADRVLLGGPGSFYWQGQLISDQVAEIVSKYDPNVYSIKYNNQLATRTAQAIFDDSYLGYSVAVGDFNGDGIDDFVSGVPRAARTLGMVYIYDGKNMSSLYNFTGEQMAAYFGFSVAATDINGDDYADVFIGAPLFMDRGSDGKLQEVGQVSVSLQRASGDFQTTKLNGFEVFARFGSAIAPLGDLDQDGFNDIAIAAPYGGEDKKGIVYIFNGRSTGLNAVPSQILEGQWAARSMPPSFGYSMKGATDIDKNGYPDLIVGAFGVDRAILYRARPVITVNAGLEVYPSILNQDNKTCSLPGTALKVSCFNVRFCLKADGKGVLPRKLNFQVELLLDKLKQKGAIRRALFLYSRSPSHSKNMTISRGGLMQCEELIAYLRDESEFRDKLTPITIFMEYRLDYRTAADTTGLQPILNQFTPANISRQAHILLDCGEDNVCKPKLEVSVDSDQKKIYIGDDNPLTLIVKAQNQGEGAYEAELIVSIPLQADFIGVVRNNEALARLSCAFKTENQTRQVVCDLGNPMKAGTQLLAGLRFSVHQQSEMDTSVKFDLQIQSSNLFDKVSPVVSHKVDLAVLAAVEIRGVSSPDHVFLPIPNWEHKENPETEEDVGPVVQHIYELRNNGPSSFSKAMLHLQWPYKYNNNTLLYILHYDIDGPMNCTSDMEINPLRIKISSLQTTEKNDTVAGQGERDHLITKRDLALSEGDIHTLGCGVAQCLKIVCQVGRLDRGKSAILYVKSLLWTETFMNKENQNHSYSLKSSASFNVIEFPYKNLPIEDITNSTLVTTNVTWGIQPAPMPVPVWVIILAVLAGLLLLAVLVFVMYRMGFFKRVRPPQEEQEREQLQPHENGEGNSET
αvβ3 integrin receptor (Homo sapiens), sequence (P05106 27-788, chain 2 of 2, further chain): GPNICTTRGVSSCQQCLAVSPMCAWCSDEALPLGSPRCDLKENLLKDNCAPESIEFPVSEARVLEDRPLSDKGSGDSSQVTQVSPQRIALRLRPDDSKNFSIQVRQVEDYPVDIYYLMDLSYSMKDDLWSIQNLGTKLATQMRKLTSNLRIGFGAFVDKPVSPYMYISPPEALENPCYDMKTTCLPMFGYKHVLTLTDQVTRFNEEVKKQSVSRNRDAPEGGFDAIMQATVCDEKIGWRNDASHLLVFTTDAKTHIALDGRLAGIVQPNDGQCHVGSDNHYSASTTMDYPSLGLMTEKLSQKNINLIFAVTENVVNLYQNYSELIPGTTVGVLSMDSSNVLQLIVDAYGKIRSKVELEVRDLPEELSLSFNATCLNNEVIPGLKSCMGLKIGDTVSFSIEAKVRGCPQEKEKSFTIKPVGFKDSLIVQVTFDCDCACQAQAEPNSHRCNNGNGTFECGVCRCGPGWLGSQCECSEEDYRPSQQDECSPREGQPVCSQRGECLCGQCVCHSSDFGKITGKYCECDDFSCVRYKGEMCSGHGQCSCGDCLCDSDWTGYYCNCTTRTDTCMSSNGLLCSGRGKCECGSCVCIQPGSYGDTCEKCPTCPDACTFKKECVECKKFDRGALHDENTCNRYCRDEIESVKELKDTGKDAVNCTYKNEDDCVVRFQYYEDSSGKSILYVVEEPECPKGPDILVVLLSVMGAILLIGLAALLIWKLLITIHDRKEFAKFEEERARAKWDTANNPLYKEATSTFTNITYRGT
HGF, sequence (P14210 32-494): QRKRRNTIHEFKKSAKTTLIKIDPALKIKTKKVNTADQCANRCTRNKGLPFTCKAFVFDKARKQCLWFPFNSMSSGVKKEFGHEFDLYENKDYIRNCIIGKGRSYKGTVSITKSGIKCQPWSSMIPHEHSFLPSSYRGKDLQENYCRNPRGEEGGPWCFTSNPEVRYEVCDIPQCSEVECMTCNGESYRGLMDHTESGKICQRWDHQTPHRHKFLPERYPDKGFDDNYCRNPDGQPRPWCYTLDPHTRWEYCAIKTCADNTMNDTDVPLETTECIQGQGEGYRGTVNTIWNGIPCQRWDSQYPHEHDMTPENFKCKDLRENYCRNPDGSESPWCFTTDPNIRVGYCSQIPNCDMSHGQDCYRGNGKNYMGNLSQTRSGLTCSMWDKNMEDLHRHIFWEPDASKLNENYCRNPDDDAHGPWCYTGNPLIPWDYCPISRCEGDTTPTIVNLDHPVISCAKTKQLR
HGF, sequence (P14210 495-728): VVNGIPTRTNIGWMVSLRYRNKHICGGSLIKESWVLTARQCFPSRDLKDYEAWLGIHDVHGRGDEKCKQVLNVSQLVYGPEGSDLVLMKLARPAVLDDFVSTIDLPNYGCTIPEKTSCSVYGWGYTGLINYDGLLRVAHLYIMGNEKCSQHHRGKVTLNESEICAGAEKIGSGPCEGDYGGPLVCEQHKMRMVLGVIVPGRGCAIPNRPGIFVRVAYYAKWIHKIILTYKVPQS
HIV-Tat, sequence (P04326 whole entry): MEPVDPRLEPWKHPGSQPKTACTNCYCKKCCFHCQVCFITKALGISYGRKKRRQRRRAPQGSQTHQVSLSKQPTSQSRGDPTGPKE
FGFR3-IIIc D1-D3 (Homo sapiens), sequence (P22607 33-365): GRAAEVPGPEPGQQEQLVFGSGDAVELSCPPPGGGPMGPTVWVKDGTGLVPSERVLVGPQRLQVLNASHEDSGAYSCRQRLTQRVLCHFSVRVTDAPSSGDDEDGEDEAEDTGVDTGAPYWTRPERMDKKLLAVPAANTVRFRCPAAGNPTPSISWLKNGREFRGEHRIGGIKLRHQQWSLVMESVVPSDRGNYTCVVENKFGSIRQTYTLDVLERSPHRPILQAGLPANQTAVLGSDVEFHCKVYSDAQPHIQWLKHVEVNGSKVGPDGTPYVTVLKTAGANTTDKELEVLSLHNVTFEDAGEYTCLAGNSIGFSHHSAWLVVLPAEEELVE

Kd [2]: 0.007 nM and 0.03 nM | Kd [3]: 2000 nM
Substance: VEGF-A165 (from UniProt P15692)

Kd [5]: 0.42 nM | Kd [6]: 165 nM
Substance: FGF4 (from UniProt P08620)

Kd [1]: 13.4 nM | Kd [12]: 453 nM
Substance: PDGF-AA (from UniProt P04085)

Kd (c-MET ECD (Homo sapiens)): 50 nM and 90 nM
Substance: HGF (from UniProt P14210)

The next lines start with the substance.

Substance: PDGF-BB (from UniProt P01127)
Kd [1]: 150 nM

Substance: HIV-Tat (from UniProt P04326)
Kd [4]: 32 nM

Substance: FGF2 (from UniProt P09038)
Kd (agrin): 2.5 nM | Kd [5]: 0.5 nM | Kd [6]: 62 nM | Kd [7]: 99 nM

Substance: FGF1 (from UniProt P05230)
Kd [5]: 0.8 nM | Kd [8]: 35 nM | Kd [9]: 59.6 nM | Kd [10]: 230 nM | Kd [4]: 1100 nM | Kd [11]: 916 nM
